Source: the supplement of paper PMC12764529
± gives the half width of the 95% confidence interval.

Tests used:
[1] = folding stability dG unfold from trypsin proteolysis; higher = more stable
In short: (§1)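 Bayesian fitting of sequencing counts gave K50 for each design. Unfolding free energy followed by setting this against a sequence-predicted unfolded-state K50 and a shared folded-state K50, either per protease or with trypsin and chymotrypsin combined. The designs, under 80 residues and lacking cysteine, were digested in a PA-tagged cDNA display format at 11 threefold-diluted protease concentrations and without protease, and only those with AlphaFold2 dimer inter-PAE above 15 were kept.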

[2] = folding stability dG unfold from chymotrypsin proteolysis; higher = more stable
In short: as §1

[3] = folding stability dG unfold (combined trypsin and chymotrypsin); higher = more stable
In short: as §1

Sequence | folding stability dG unfold [1] [kcal/mol] | folding stability dG unfold [2] [kcal/mol] | folding stability dG unfold [3] [kcal/mol]
SAGGVTIEVDPGTGKVTITFPDGSSATIEVPPDERAVLFVKEGEGEVEVALVREDDPEALEKALELGSAGGS [r16_623_TrMRF] | 0.811 ± 0.059 | 1.34 ± 0.058 | 1.05 ± 0.2
SAGGVTTPVTFTVPPSLDPEEAAERIAKELEEELKAASNKKVKVTVESVTPLPDGTLRVTVVITTEPSAGGS [r8_156_JUSTAS] | 3.76 ± 0.2 | 3.14 ± 0.067 | 3.31 ± 0.086
SAGGVVTVTVDPNSDKVTAYTTRTVTVYFNELGIWKEEEVTDVVTMSQEELEKLKEESGLPMVIVGASAGGS [r8_337_JUSTAS] | 0.216 ± 0.061 | -0.0773 ± 0.19 | 0.238 ± 0.094
SAGGVYVIKIKFEFGDGLKAELFIMFQSWEQAKEQAENLARNHGLRIDEIEVVPIKPMPPPDPDDQKSAGGS [r8_364_TrROS] | 2.46 ± 0.14 | 4.13 ± 0.14 | 3.63 ± 0.29
SAGGWIPPGAEIEIDEIGPDGTITVKIKYPDGKPMSITMRRQRDKDGKRYIELYFPGSGRPIASFPIKSAGG [r13_527_TrROS] | 1.84 ± 0.03 | 1.57 ± 0.08 | 1.78 ± 0.09
SAGGWLWVRTNGRIFVIEIKTEMKWEYDPGDPGQWRMDMEPEIEVRPIPPDDIKPLPPVDEDDPENKSAGGS [r16_395_TrROS] | 1.68 ± 0.13 | 2.09 ± 0.27 | 1.87 ± 0.32
SAGGWRIKLERDPENGKIKVSIERSPNEGYATVEVKLPNGKPLEIPGPMDSPDEMEEKARDYIKKLLSAGGS [r16_319_TrROS] | 0.777 ± 0.09 | 1.01 ± 0.086 | 0.991 ± 0.1
SAGGWTIEEIIDAIREAKENGPGQKVEIEIPFGGGPVRVSIEVPPDGRVKIEIQYDNKPIWEIEIPVSAGGS [r16_611_TrROS] | 1.98 ± 0.14 | 2.12 ± 0.081 | 2.02 ± 0.15
SAGGWYERIKEWAKDKGLKVDIEPTSFDPPNGWMPFEIEFPNGKKIDITFPDSPDQMLWMIRNMIKNSAGGS [r16_153_TrROS] | 1.63 ± 0.057 | 2.16 ± 0.09 | 2.05 ± 0.15
SAGGWYLRIEPDDGRELEIPMNDPGLPLEDLADKLMKDMPGPMKIKVEFYHPNKPVEHTIKIPLPKNSAGGS [r16_216_TrROS] | 0.443 ± 0.11 | 0.436 ± 0.33 | 0.423 ± 0.28
SAGGYEKKTIRIEATPEELENLLKELREKYPDLKVEVKVVKVEKKENDPNVSPKDKKVYLEITVVKPKPSAG [r5_437_TrROS_Hall] | 1.39 ± 0.12 | 1.89 ± 0.13 | 1.88 ± 0.17
SAGGYYKDPNGKPREPVPKVEPKPVTITFPNLTPEQADYLADYLRDLGLEVKYDPENGMLTAEFWIYSAGGS [r16_765_TrROS] | 1.23 ± 0.033 | 1.95 ± 0.077 | 1.71 ± 0.11
SAGHQIVKRLARHMQEQGYPIEVDVTVEPYPDDGWVEITIDIEMQNEDGKWQPIGPITIYIPKEDANKLSAG [r5_413_TrROS] | 0.914 ± 0.07 | 1.44 ± 0.11 | 1.34 ± 0.17
SAGIEEVAKEIAETLEELLPSEYKILDAKAIPLPDDVVIVPITVQKFDPNGKPLGELQFVVVIPPGEASAGG [r19_28_TrMRF] | 0.639 ± 0.068 | 0.519 ± 0.096 | 0.636 ± 0.062
SAGIEIRIEAYMPWEEARDQVKEIARWLMSMFPGFKVDIDVDHEPVPNNMWVATVTIKIEPLPPGQPIFSAG [r5_936_TrROS] | 3.83 ± 0.1 | 4.79 ± 0.066 | 4.56 ± 0.12
SAGIKIEVEPSPGNGWYRIRIENPDLRKKLNEKFPDLKEITFPFKNPEDMPWEEMREHAIDQIKEFLPSAGG [r19_298_TrROS] | -0.197 ± 0.29 | 1.03 ± 0.15 | 0.64 ± 0.24
SAGIKPGDPVVIKFNVPPELREKIKEAFEKPGYEYEFHPETGEVTVVAPAENIDELMKLPYIEEIVPGSAGG [r19_212_TrMRF] | 0.891 ± 0.052 | 0.768 ± 0.1 | 0.817 ± 0.15
SAGIPLGPEQLRALAEELAEEFKKKLAEELGLSPEDIKLLSIRRLPDGSIEIELEIPDRTYRYTFPLPDSAG [r5_565_JUSTAS] | 3.2 ± 0.17 | 3.02 ± 0.042 | 3.1 ± 0.16
SAGIPPDDPNDIYIVPVKITPVPDGSLQIEIIIVWPDGEVYTMEQEFDPNGNIEEMDMEPMPPEDIKESAGG [r19_285_TrROS] | 1.1 ± 0.1 | 1.31 ± 0.081 | 1.2 ± 0.14
SAGKAELVEVTIEGDKLTALFKIPETGGLVLAEAEFDNGIVKVKAKFYSPSGKPLGEAEFTLPASELKLSAG [r5_308_TrMRF] | 1.83 ± 0.1 | 2.73 ± 0.067 | 2.48 ± 0.12
SAGKAIFTVVPIIPKTGKKYSISKFEITLKEGEKIPIKAIADKIPPKNYIVETEIHPDHIHVTVYVLDGSAG [r5_269_TrMRF] | 0.665 ± 0.08 | 1.61 ± 0.11 | 1.25 ± 0.17

Sequence | folding stability dG unfold [1] [kcal/mol] | folding stability dG unfold [2] [kcal/mol] | folding stability dG unfold [3] [kcal/mol]
SAGKALSPEELARYVREKYGLPADAPITIEEVPGKYTLSLPDLRVEVTVTDDTTTVTLRPPDPGPEAALSAG [r5_190_JUSTAS] | 0.97 ± 0.044 | 1.57 ± 0.16 | 1.42 ± 0.14
SAGKARIVEYDEESGTITIEVDGKTIEIELAPGETAEITLEENEDGTLTLTITVNGKTLTLTIPLDDLKSAG [r5_500_TrROS_Hall] | 2.61 ± 0.18 | 3.47 ± 0.12 | 3.15 ± 0.13
SAGKEEAEKNKIAVLHLELYHPDGTKVSITIAFHPDKPEAVIEELTKLGYPLKDLIKNHPDLKILKIEPSAG [r5_430_TrMRF] | 1.71 ± 0.092 | 1.57 ± 0.044 | 1.71 ± 0.11
SAGKEKKPPKKVTLTLEIEIEVPEEEEEKAKELAEELEEELRKLGIEKVEVEYDKETKRVRIRVTVVLPSAG [r5_512_TrROS_Hall] | 2.22 ± 0.086 | 3.01 ± 0.094 | 2.74 ± 0.36
SAGKEKVLVIPVKVKPGEKIVVKVPSNSKILIIDLESGEIYEIDVPENVEPVFILPENKEYLIAVVFKSAGG [r19_78_TrMRF] | 2.66 ± 0.081 | 3.92 ± 0.086 | 3.38 ± 0.11
SAGKEVEIKIEIVIKMTPEELKKLAEELAKKLKEAGFEVEVTVEEKEVNGELYAVITVTVRLPPGAKPPSAG [r5_217_TrROS_Hall] | 2.81 ± 0.36 | 4.11 ± 0.26 | 3.67 ± 0.42
SAGKFKIVKVEIKDGKITITVKNEKTGELVKKEITFDKKTKKLKIKLYNKNGKLIKEETKTLSLEELKKSAG [r5_308_TrROS_Hall] | 2.06 ± 0.093 | 2.66 ± 0.071 | 2.49 ± 0.096
SAGKFPFMIKIEDKDGKPKDEIPIPAEELQDDPEKFLEIVETIADEFSKDGYRVKIYFPGTGQPIEIPISAG [r14_972_TrROS] | 0.418 ± 0.2 | 1.32 ± 0.15 | 0.859 ± 0.2
SAGKIEFPMPNGYWFRIEIDPENNKVKVEYSPHNGQYKVKIPGKEEVQIPIKGMPFEEMAKEIIEKLLKSAG [r5_447_TrROS] | 0.776 ± 0.17 | 1.13 ± 0.19 | 0.962 ± 0.4
SAGKIIKFKTKANENASITVPEENKILKIKVYKPNGTLLDEYEVEVKPNKTLVLNIPDDNLYVVVEPIPSAG [r5_797_TrMRF] | 0.56 ± 0.025 | 1.17 ± 0.1 | 0.975 ± 0.057
SAGKIKIDVMPPGWFLRIKIEHGGKEQERMIPIPGDSVDEIVKEALDEIQQHFPNKPIKVDIEIYPVDDSAG [r5_180_TrROS] | 1.03 ± 0.2 | 1.29 ± 0.37 | 0.874 ± 0.37
SAGKIKIPPGQEIWIIVNVEWQPDPDNGEPRYTVTVMKIKIKADPNGGLKIESIETKIVPAEDLKDNGLSAG [r5_340_TrROS] | 1.84 ± 0.036 | 3.6 ± 0.078 | 3.06 ± 0.14
SAGKIPPGEEQKKKIKLGGKEIKIKMWTYKNPDGQPHMMFRVEYDGEPGIFNPDSGRPMTPDDIKKMLKSAG [r5_138_TrROS] | 0.0292 ± 0.19 | 1.24 ± 0.35 | 0.788 ± 0.26
SAGKITINVMMNPDGNYYVKIRIGGDGEPIMEFPVDSPEDAEEKAKAFADNLAKKYPNYKIEVDYMPFDSAG [r5_383_TrROS] | 4.23 ± 0.32 | 3.06 ± 0.066 | 3.64 ± 0.12
SAGKIVIDKDNMKVYVTLPNGKKIELSLEELKKLLEELKKEGKPLTAEEIAEKLKKEFPGAEVEIVPVSAGG [r19_46_TrROS_Hall] | 2.38 ± 0.086 | 4.01 ± 0.064 | 3.69 ± 0.083
SAGKKIEIDMSLEELKKLPGIKKVEVKNGKVYLEVDGKKIEITIRPPKPVLEFKEGMSEEEKKELLKKLSAG [r5_2_TrROS_Hall] | 0.911 ± 0.093 | 1.11 ± 0.1 | 1.22 ± 0.21
SAGKKIHITLTEDELREIAEALGLEPEDMTAEELAARLREEFPDVEVTIEKPPVEEREREERELAEEEKSAG [r5_264_TrROS_Hall] | 1.76 ± 0.064 | 0.984 ± 0.068 | 1.3 ± 0.14
SAGKKIKIVKVEVTYDPETKEVTVKITIYNENGEKIKEIELTYEPGMSEEEVREKAEALVRKLIEEGKLSAG [r5_238_TrROS_Hall] | 2.75 ± 0.15 | 2.24 ± 0.05 | 2.54 ± 0.1
SAGKKKEEEKKKKEEKKKKEYYLVKVKIKNPNGEEKEIVLKAKSLEEAKKALEKLGLKVEIVEIKPIKVSAG [r5_233_TrROS_Hall] | 1.7 ± 0.11 | 3.03 ± 0.11 | 2.71 ± 0.17
SAGKKKIKIEIVKVEKNENGETIIRVKVKLEDGSEKEITINLDDLKNGNLKNMTAEEIAKLFPNIEIESAGG [r19_74_TrROS_Hall] | 2.35 ± 0.062 | 1.58 ± 0.084 | 1.88 ± 0.18
SAGKKKKEVKKITLVIEFPEEMTEEELKERAEKLAEELKKKFPKIKKIEVKVEKKDGKLIVTVEIEIEKSAG [r5_446_TrROS_Hall] | 2.02 ± 0.064 | 1.78 ± 0.079 | 1.88 ± 0.15
